The values below come from article PMC5048913.

Holding throughout (experiment): split reporter
Assay [1] deals with Yn-fused MDM2, wild type (FLAG-tagged MDM2-Yn) (UniProt Q00987).
The target in assay [2] is M2-dAZ-Yn (Yn-fused MDM2 deleted of the AZ domain) (UniProt Q00987).
In assay [3] the target is M2-dIAZ-Yn (Yn-fused MDM2 deleted of the I1 and AZ domains) (UniProt Q00987).

Yc-fused NS, wild type (Myc-tagged NS-Yc), sequence (Q9BVP2 whole entry, the tested form may be a part): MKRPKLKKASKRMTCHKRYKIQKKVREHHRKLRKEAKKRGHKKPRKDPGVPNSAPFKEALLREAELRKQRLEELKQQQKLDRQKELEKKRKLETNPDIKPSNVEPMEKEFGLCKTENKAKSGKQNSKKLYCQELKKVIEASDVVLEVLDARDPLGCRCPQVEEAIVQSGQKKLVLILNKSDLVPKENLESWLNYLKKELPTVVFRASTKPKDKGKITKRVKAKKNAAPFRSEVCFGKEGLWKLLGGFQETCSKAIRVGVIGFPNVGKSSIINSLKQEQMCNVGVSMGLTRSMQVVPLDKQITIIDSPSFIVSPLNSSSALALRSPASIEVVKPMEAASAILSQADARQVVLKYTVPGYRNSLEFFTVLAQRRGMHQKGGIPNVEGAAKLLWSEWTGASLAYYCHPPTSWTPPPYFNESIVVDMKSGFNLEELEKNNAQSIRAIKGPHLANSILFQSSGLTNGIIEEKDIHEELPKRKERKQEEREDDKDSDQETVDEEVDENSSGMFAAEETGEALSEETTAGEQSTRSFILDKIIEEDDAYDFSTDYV
NS-GI-Yc (Yc-fused NS deleted of the BC and A domains), sequence (Q9BVP2 116-464, stated change not applied): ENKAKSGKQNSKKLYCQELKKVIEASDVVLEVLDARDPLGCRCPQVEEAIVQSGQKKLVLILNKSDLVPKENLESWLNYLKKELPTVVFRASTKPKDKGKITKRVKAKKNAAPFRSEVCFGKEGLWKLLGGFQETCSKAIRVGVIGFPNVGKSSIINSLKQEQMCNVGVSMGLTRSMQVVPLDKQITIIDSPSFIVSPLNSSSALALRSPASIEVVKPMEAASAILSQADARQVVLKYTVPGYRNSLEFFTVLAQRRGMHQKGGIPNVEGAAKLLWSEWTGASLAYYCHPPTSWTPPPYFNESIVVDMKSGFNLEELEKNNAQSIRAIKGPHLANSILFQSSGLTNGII

As for “NS-GI-Yc (Yc-fused NS deleted of the BC and A domains) (from UniProt Q9BVP2 116-464) (domain or fragment)”, the BiFC efficiency (percent YFP+ cells in the CFP+ population) in assay [1] amounted to 27.2%.
On to “Yc-fused NS, wild type (Myc-tagged NS-Yc) (from UniProt Q9BVP2 1-549) (natural protein)”, for which the BiFC efficiency (percent YFP+ cells in the CFP+ population) in assay [2] was found to be 15%; in assay [3], 9.4%; in assay [1], 48.7%.
